Measured values taken from the supplement of paper PMC7877785.
± gives the uncertainty stated by the source.

Experiment: self-splicing fitness, log relative to wild type (ln ratio); higher = more splicing; Tetrahymena group I intron in knt gene, E. coli kanamycin selection, DiMSum; sequences stand for … in CUCUCU…GGAGGGAAAAGUUAUCAGGCAUGCACCUGGUAGCUAGUCUUUAAACCAAUAGAUUGCAUCGGUUUAAAAGGCAAGACCGUCAAAUUGCGGGAAAGGGGUCAACAGCCGUUCAGUACCAAGUCUCAGGGGAAACUUUGAGAUGGCCUUGCAAAGGGUAUGGUAAUAAGCUGACGGACAUGGUCCUAACCACGCAGCCAAGUCCUAAGUCAACAGAUCUUCUGUUGAUAUGGAUGCAGUUCACAGACUAAAUGUCGGUCGGGGAAGAUGUAUUCUUCUCAUAAGAUAUAGUCGGACCUCUCCUUAAUGGGAGCUAGCGGAUGAAGUGAUGCAACACUGGAGCCGCUGGGAACUAAUUUGUAUGCGAAAGUAUAUUGAUUAGUUUUGGAGUACUCGUGGUCG
Outline: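 Fitness was computed with DiMSum as the error-weighted combination of replicate fold changes, kanamycin versus none, each normalised to wild type. The library randomised all eight intron nucleotides of the P1ex region, with the intron placed in the knt kanamycin-resistance gene on pET-22b(+) in E. coli BL21(DE3). Six replicate transformations were grown overnight at 37°C or 30°C on LB agar with or without 25 μg/mL kanamycin, plus 100 μg/mL carbenicillin, 50 μM IPTG and 0.2% rhamnose. Pooled colonies were amplicon-sequenced on an Illumina HiSeq 2500.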

| Sequence | self-splicing fitness (ln) (30 °C) | self-splicing fitness (ln) (37 °C) |
| --- | --- | --- |
| CAUCAGCAAUAUUACGUUAG | -0.472 ± 0.073 | -0.526 ± 0.08 |
| CAUGAGCAAUAUUACGAAUU | -4.16 ± 0.35 | -2.49 ± 0.23 |
| CAUGAGCAAUAUUACGCAGC | -3.08 ± 0.38 | -2.32 ± 0.34 |
| CAUGAGCAAUAUUACGCAUC | -2.04 ± 0.31 | -2.41 ± 0.33 |
| CAUGAGCAAUAUUACGCCCA | -1.49 ± 0.42 |  |
| CAUGAGCAAUAUUACGCCGU | -3.93 ± 0.37 | -3.36 ± 0.26 |
| CAUGAGCAAUAUUACGCGAG | -2.19 ± 0.14 | -1.47 ± 0.18 |
| CAUGAGCAAUAUUACGCGUC |  | -2.76 ± 0.31 |
| CAUGAGCAAUAUUACGCUAU | -3.46 ± 0.3 | -1.99 ± 0.21 |
| CAUGAGCAAUAUUACGGAGA | -3.91 ± 0.35 | -2.58 ± 0.48 |
| CAUGAGCAAUAUUACGGAUU | -3.76 ± 0.21 | -2.52 ± 0.26 |
| CAUGAGCAAUAUUACGGCGG | -0.18 ± 0.094 | -0.278 ± 0.14 |
| CAUGAGCAAUAUUACGGCGU | -3.61 ± 0.47 | -1.97 ± 0.34 |
| CAUGAGCAAUAUUACGGGAA |  | -1.66 ± 0.25 |
| CAUGAGCAAUAUUACGGGCC |  | -1.98 ± 0.36 |
| CAUGAGCAAUAUUACGGGCU | -3.53 ± 0.16 | -2.11 ± 0.15 |
| CAUGAGCAAUAUUACGGUAA |  | -2.65 ± 0.34 |
| CAUGAGCAAUAUUACGUACU | -3.25 ± 0.18 | -2.59 ± 0.18 |
| CAUGAGCAAUAUUACGUCAU | -3.61 ± 0.24 | -1.24 ± 0.22 |
| CAUGAGCAAUAUUACGUCUC | -2.83 ± 0.22 |  |

| Sequence | self-splicing fitness (ln) (30 °C) | self-splicing fitness (ln) (37 °C) |
| --- | --- | --- |
| CAUGAGCAAUAUUACGUGUC | -2.98 ± 0.17 | -1.82 ± 0.22 |
| CAUUAGCAAUAUUACGAAGG | -1.09 ± 0.089 | -0.624 ± 0.099 |
| CAUUAGCAAUAUUACGACAA | -2.37 ± 0.24 | -2.09 ± 0.32 |
| CAUUAGCAAUAUUACGACCA | -2.56 ± 0.42 | -1.67 ± 0.37 |
| CAUUAGCAAUAUUACGAGAC | -3.15 ± 0.46 | -1.57 ± 0.42 |
| CAUUAGCAAUAUUACGAGAU | -4.04 ± 0.46 | -2.9 ± 0.24 |
| CAUUAGCAAUAUUACGAGCG | 0.0198 ± 0.086 | 0.256 ± 0.098 |
| CAUUAGCAAUAUUACGAGGG | -3.1 ± 0.18 | -2 ± 0.21 |
| CAUUAGCAAUAUUACGAGGU | -3.01 ± 0.27 | -2.66 ± 0.3 |
| CAUUAGCAAUAUUACGAUGG | -0.461 ± 0.076 | 0.0641 ± 0.083 |
| CAUUAGCAAUAUUACGAUUA | -1.47 ± 0.085 | -0.981 ± 0.081 |
| CAUUAGCAAUAUUACGCAAC | -2.14 ± 0.46 | -2.51 ± 0.3 |
| CAUUAGCAAUAUUACGCCGG | -0.963 ± 0.15 | 0.612 ± 0.24 |
| CAUUAGCAAUAUUACGCCUU | -3.03 ± 0.36 | -1.84 ± 0.21 |
| CAUUAGCAAUAUUACGCGCG | 0.0331 ± 0.12 | 0.0206 ± 0.13 |
| CAUUAGCAAUAUUACGCGGC | -3.98 ± 0.28 | -1.8 ± 0.28 |
| CAUUAGCAAUAUUACGCUAA | -2.7 ± 0.32 |  |
| CAUUAGCAAUAUUACGCUAG | -2.75 ± 0.28 | -0.852 ± 0.2 |
| CAUUAGCAAUAUUACGCUAU | -3.47 ± 0.3 | -2.99 ± 0.28 |
| CAUUAGCAAUAUUACGCUCA | -1.21 ± 0.07 | -0.215 ± 0.073 |
